From paper PMC5655499, “Peptide array-based screening reveals a large number of proteins interacting with the ankyrin-repeat domain of the zDHHC17 S-acyltransferase” (The Journal of Biological Chemistry, 2017)

B1: CSPα 15-mer peptide (wild type) containing the zDABM [not stated] / His6-tagged AR domain (residues 51–288) of zDHHC17 [human] (parent)
chain 1: THIDDYSTWDIVKATQYGIYERCRELVEAGYDVRQPDKENVTLLHWAAINNRIDLVKYYISKGAIVDQLGGDLNSTPLHWATRQGHLSMVVQLMKYGADPSLIDGEGCSCIHLAAQFGHTSIVAYLIAKGQDVDMMDQNGMTPLMWAAYRTHSVDPTRLLLTFNVSVNLGDKYHKNTALHWAVLAGNTTVISLLLEAGANVDAQNIKGESALDLAKQRKNVWMINHLQEARQAKGYDN
chain 2: TDTPIVIQPASATET

Variants of: B1
Experiment: far-Western blotting on peptide array;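 note: PSSM score: binding signal versus wild type scaled to sum 1 per position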
Details: with His6-tagged AR domain (residues 51–288) of zDHHC17 [human]; ARzD17-His 500 nm in PBS-T, overnight, 4 °C

Screen value, < 0.005:
chain 2 P9I
chain 2 P9S
chain 2 P9A
chain 2 P9Q
chain 2 P9G
chain 2 P9L
chain 2 P9H
chain 2 P9M
chain 2 P9T
chain 2 P9F
chain 2 P9N
chain 2 P9D
chain 2 P9V
chain 2 P9E
chain 2 P9C
chain 2 P9K
chain 2 P9R
chain 2 P9W
chain 2 I5T
chain 2 I5A
chain 2 I5W
chain 2 I5L
chain 2 I5F
chain 2 I5E
chain 2 I5Q
chain 2 I5P
chain 2 I5M
chain 2 I5S
chain 2 I5R
chain 2 I5K
chain 2 Q8D
chain 2 Q8G
chain 2 Q8A
chain 2 Q8T
chain 2 Q8P
chain 2 Q8V
chain 2 Q8L
chain 2 Q8R
chain 2 Q8K
chain 2 Q8F
chain 2 Q8S
chain 2 Q8E
chain 2 Q8I
chain 2 Q8Y
chain 2 Q8H
chain 2 P4Y
chain 2 P4D
chain 2 P4K
chain 2 P4N
chain 2 P4M
chain 2 P4R
chain 2 A10D
chain 2 V6A
chain 2 V6P
chain 2 V6D
